No end group written: not given here. *: point of attachment. maleimido‑mono‑amide‑DOTA = O=C(O)CN1CCN(CC(=O)O)CCN(CC(=O)NCCN2C(=O)CC(*)C2=O)CCN(CC(=O)O)CC1; NAM = N-norbiotinyl-β-maleimidopropionylamide, biotin derivative conjugated to Cys thiol
Assays:
[1] = target: T1, VCAM-1 expressed on HUVEC (Homo sapiens, UniProt P19320); assay: In vitro test of 68Ga-MacroP on HUVEC (LigandTracer radioactive uptake); assay type: cell-based; set-up: endogenous in cells; host or cells: primary HUVEC stimulated with 10 ng/mL TNF-alpha for 4 h; conditions: HUVEC activated with 10 ng/mL TNF-α for 4 h vs unstimulated HUVEC; 5 MBq 68Ga-MacroP in 3 mL saline; LigandTracer White
T1 sequence (P19320 25-739): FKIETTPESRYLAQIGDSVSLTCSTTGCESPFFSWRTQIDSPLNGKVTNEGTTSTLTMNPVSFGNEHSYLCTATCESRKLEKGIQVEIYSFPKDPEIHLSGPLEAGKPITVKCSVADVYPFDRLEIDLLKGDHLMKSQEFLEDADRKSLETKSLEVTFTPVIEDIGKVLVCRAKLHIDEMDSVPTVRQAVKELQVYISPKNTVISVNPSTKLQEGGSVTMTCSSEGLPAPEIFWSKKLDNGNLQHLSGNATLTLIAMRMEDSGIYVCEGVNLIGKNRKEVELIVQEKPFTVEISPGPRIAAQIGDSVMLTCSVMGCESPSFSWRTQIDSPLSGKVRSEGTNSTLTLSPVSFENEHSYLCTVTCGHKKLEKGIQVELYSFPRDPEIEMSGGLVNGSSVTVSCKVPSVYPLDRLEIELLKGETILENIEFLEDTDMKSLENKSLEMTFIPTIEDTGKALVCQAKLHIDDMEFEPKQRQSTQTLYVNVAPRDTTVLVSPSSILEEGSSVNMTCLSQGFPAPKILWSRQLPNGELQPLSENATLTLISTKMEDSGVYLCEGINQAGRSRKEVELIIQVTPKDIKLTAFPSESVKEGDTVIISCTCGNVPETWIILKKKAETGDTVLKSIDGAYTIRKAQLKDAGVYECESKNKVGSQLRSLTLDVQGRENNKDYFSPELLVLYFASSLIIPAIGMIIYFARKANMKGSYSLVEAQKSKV
From the text: (§1) Human Umbilical Vein Endothelial Cells (HUVEC) were obtained from human umbilical cords collected from full-term women immediately after cesarean section at the Gynecology and Obstetrics Department of International Evangelical Hospital in Genoa (Italy), after patients’ informed consent and the approval (register number 2/2010-19, February, 2010) by the Institutional Ethical Committee. Each cord vein was individually processed for obtaining endothelial cells through mechanical dissociation of the tissue and collagenase digestion. Cells were maintained in culture medium EndoGRO-LS Complete Culture Media Kit seeded on attachment factor-coated plates. For labeling experiments, 8 × 10^5 cells were plated on Petri dishes in EndoGRO Basal Medium (SCME-BM) and allowed to attach overnight prior stimulation with 10 ng/mL of TNF-alpha (TNF-α) for 4 h. Cells without TNF-α treatment were used as control (Figures S19 and S20).
The binding assay of ^68Ga-MacroP with VCAM-1 expressed on HUVEC was monitored using LigandTracer® White (Ridgeview Instruments AB, Uppsala, Sweden) according to our previously validated procedure. Briefly, the tool consists of a beta-emission detector and a rotating platform harboring a standard Petri dish. […] The binding of radioactivity to cell-containing areas and reference areas was recorded. […]

[2] = deglycosylated form of avidin; cited from earlier work
Method: After radiolabeling with ^68Ga, both MacroP and NAMP were tested on human endothelial cells. Quantitative PCR and Fluorescence-Activated Cell Sorting (FACS) analysis were performed prior to the experiments, to assess the expression of VCAM-1 on HUVEC. To avoid excessive stress for the cells, they were activated with TNF-α for 4 h only. In the three-step pretargeting test, a commercially available deglycosylated form of avidin (NeutrAvidin™) was employed because it is characterized by reduced non-specific binding, low isoelectric point (~6.3) and low production cost with respect to ...

avidin = avidin (Gallus gallus, UniProt P02701); assay: NAMP-avidin binding (ultrafiltration, RP-HPLC, capillary electrophoresis); conditions: approx. 0.17 mM NAMP with avidin 2.5 μg/μL, 37 °C, 2 h; 30 kD cut-off ultrafiltration; RP-HPLC of ultrafiltrate, capillary electrophoresis of retentate
avidin, sequence (P02701 25-152, species assumed): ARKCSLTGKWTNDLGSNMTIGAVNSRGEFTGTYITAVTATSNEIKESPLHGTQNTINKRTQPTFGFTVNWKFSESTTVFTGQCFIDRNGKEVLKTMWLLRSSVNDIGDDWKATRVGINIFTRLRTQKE
Method: Avidin was dissolved in ultrapure water (2.5 μg/μL). This solution (100 μL) was mixed with a NAMP solution (approx. 0.17 mM) and heated at 37 °C under 400 rpm orbital shaking for 2 h. The mixture was placed in an ultrafiltration system with a regenerated cellulose membrane (30 kD cut-off), and washed with 250 μL of ultrapure water at 1400 g for 20 min at 15 °C. By inverted spinning at 1000 g for 3 min, the retentate was recovered and analyzed by capillary electrophoresis (Agilent Technologies 7100 Capillary Electrophoresis, Santa Clara, CA, USA). Separations were performed in a bare fused-silica capillary 50 μm (i.d.) × 64.5 cm (L) × 50 cm (L), activated with 1 M aqueous NaOH, 0.1 M aqueous NaOH and washed with ultrapure water. The conditioning and the run were carried out with 50 mM sodium phosphate buffer (pH 2.5), used also for 120 s preconditioning before injection. The gradient voltage was from 0 to 30 kV in 0.2 min.

[3] = target: T1, VCAM-1 expressed on HUVEC; assay: In vitro test of NAMP-avidin-68Ga-BisDOTA on HUVEC (three-step pretargeting, LigandTracer); assay type: cell-based; set-up: endogenous in cells; host or cells: primary HUVEC stimulated with TNF-alpha
From the text: as §1, with “Cells without TNF-α treatment were used as control (Figures S19 and S20).” left out
After removing the culture medium containing TNF-α, stimulated HUVEC were incubated at 37 °C with 4 nmol of NAMP for 20 min and afterwards with 3.5 nmol of NeutrAvidin™ for 10 min. After washing and replacing the culture medium with 3 mL of the saline solution containing 5MBq of ^68Ga-BisDOTA (specific activity 37.0 MBq/nmol), the binding assay of ^68Ga-BisDOTA with the NAMP-avidin complex, bound to the VCAM-1 expressed on HUVEC, was monitored using the same procedure described in Section 2.3.5.

Substance: MacroP: reaction product of maleimido-mono-amide-DOTA with the cysteine thiol of the VCAM-1-binding peptide VHPKQHRGGSKGC (VHPKQHRGGSKGC(maleimido‑mono‑amide‑DOTA))
- radiosignal uptake of activated cells compared to control cells [1]: 4 fold

Substance: NeutrAvidin™: commercially available deglycosylated form of avidin
- isoelectric point [2]: ~ 6.3

Substance: NAMP: biotin derivative: NAM (N-norbiotinyl-β-maleimidopropionylamide) conjugated to the cysteine thiol of VHPKQHRGGSKGC, for three-step pretargeting (VHPKQHRGGSKGC(NAM))
- avidin binding: unbound NAMP in the ultrafiltrate (avidin): no unbound NAMP could be detected
- radioactive uptake of activated cells compared to the controls ([3]; HUVEC activated with 10 ng/mL TNF-α for 4 h vs unstimulated, 4 nmol NAMP 20 min at 37 °C, 3.5 nmol NeutrAvidin 10 min, then 5 MBq 68Ga-BisDOTA in 3 mL saline): 12 fold
- uptake of radioactivity, activated cells versus control cells (in words) ([3]; TNF-α activated HUVEC vs control, NAMP, then NeutrAvidin and 68Ga-BisDOTA, p < 0.05): evidently higher uptake of radioactivity compared to the control cells

Reference: PMC8309178, “Two Novel PET Radiopharmaceuticals for Endothelial Vascular Cell Adhesion Molecule-1 (VCAM-1) Targeting” (Pharmaceutics, 2021)
